Consider 23 molecules from PMC9352680, “A comprehensive thermodynamic model for RNA binding by the Saccharomyces cerevisiae Pumilio protein PUF4”.

T1: PUF4 RNA-binding domain (Saccharomyces cerevisiae, UniProt P25339 537-888)
T1 sequence: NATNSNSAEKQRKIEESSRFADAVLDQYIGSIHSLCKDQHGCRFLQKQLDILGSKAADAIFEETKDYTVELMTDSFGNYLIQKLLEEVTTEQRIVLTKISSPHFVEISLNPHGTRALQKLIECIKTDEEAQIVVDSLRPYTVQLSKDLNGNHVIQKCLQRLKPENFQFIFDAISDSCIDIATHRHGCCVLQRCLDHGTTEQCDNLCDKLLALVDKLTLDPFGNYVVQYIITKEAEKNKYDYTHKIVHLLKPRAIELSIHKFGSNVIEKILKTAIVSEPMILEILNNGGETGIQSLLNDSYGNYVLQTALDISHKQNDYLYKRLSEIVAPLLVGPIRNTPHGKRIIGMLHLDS

B1: Ic_S4_P4E.1_K4.1_C4.1_H4.1_A4.1_[T5G]_[A6C]_[T7A]_F4.1_[A9G]_T4.1 (ssRNA)
RNA: UUUGACAACUGAUCGUUCUUUCUUGUAGCAUGUUCUUUCUCGAUCAGUUGUCUUU
B2: Ic_S4_P4E.1_K4.1_C4.1_H4.1_A4.1_[T5G]_[A6C]_[T7A]_F4.1_[T8C]_T4.1 (ssRNA)
RNA: UUUGACAACUGAUCGUUCUUUCUUGUAGCACAUUCUUUCUCGAUCAGUUGUCUUU
B3: Ic_S4_P4E.1_K4.1_C4.1_H4.1_A4.1_[T5G]_[A6T]_[T7A]_F4.1_[T8G]_[A9T]_T4.1 (ssRNA)
RNA: UUUGACAACUGAUCGUUCUUUCUUGUAGUAGUUUCUUUCUCGAUCAGUUGUCUUU
B4: Ic_S4_P4E.1_K4.1_C4.1_H4.1_A4.1_[T5G]_[A6T]_F4.1_[T8A]_[A9C]_T4.1 (ssRNA)
RNA: UUUGACAACUGAUCGUUCUUUCUUGUAGUUACUUCUUUCUCGAUCAGUUGUCUUU
B5: Ic_S4_P4E.1_K4.1_C4.1_H4.1_A4.1_[T5G]_[A6C]_F4.1_[T8G]_[A9T]_T4.1 (ssRNA)
RNA: UUUGACAACUGAUCGUUCUUUCUUGUAGCUGUUUCUUUCUCGAUCAGUUGUCUUU
B6: Ic_S4_P4E.1_K4.1_C4.1_H4.1_A4.1_[T5G]_[A6T]_[T7G]_F4.1_[A9C]_T4.1 (ssRNA)
RNA: UUUGACAACUGAUCGUUCUUUCUUGUAGUGUCUUCUUUCUCGAUCAGUUGUCUUU
B7: Ic_S4_P4E.1_K4.1_C4.1_H4.1_A4.1_[T5G]_[A6T]_[T7G]_F4.1_[T8C]_[A9C]_T4.1 (ssRNA)
RNA: UUUGACAACUGAUCGUUCUUUCUUGUAGUGCCUUCUUUCUCGAUCAGUUGUCUUU
B8: Ic_S4_P4E.1_K4.1_C4.1_H4.1_A4.1_[T5G]_[A6T]_F4.1_[T8C]_[A9T]_T4.1 (ssRNA)
RNA: UUUGACAACUGAUCGUUCUUUCUUGUAGUUCUUUCUUUCUCGAUCAGUUGUCUUU
B9: Ic_S4_P4E.1_K4.1_C4.1_H4.1_A4.1_[T5G]_[A6T]_[T7G]_F4.1_T4.1 (ssRNA)
RNA: UUUGACAACUGAUCGUUCUUUCUUGUAGUGUAUUCUUUCUCGAUCAGUUGUCUUU
B10: Ic_S4_P4E.1_K4.1_C4.1_H4.1_A4.1_[T5G]_[A6T]_[T7A]_F4.1_[T8A]_[A9C]_T4.1 (ssRNA)
RNA: UUUGACAACUGAUCGUUCUUUCUUGUAGUAACUUCUUUCUCGAUCAGUUGUCUUU
B11: Ic_S4_P4E.1_K4.1_C4.1_H4.1_A4.1_[T5G]_[A6T]_[T7C]_F4.1_[A9G]_T4.1 (ssRNA)
RNA: UUUGACAACUGAUCGUUCUUUCUUGUAGUCUGUUCUUUCUCGAUCAGUUGUCUUU
B12: Ic_S4_P4E.1_K4.1_C4.1_H4.1_A4.1_[T5G]_[A6C]_[T7C]_F4.1_[T8C]_[A9C]_T4.1 (ssRNA)
RNA: UUUGACAACUGAUCGUUCUUUCUUGUAGCCCCUUCUUUCUCGAUCAGUUGUCUUU
B13: Ic_S4_P4E.1_K4.1_C4.1_H4.1_A4.1_[T5G]_[A6C]_F4.1_[T8C]_T4.1 (ssRNA)
RNA: UUUGACAACUGAUCGUUCUUUCUUGUAGCUCAUUCUUUCUCGAUCAGUUGUCUUU
B14: Ic_S4_P4E.1_K4.1_C4.1_H4.1_A4.1_[T5G]_[A6T]_[T7C]_F4.1_[T8G]_[A9T]_T4.1 (ssRNA)
RNA: UUUGACAACUGAUCGUUCUUUCUUGUAGUCGUUUCUUUCUCGAUCAGUUGUCUUU
B15: Ic_S4_P4E.1_K4.1_C4.1_H4.1_A4.1_[T5G]_[A6T]_[T7A]_F4.1_[A9C]_T4.1 (ssRNA)
RNA: UUUGACAACUGAUCGUUCUUUCUUGUAGUAUCUUCUUUCUCGAUCAGUUGUCUUU
B16: Ic_S4_P4E.1_K4.1_C4.1_H4.1_A4.1_[T5G]_[A6C]_[T7C]_F4.1_[A9C]_T4.1 (ssRNA)
RNA: UUUGACAACUGAUCGUUCUUUCUUGUAGCCUCUUCUUUCUCGAUCAGUUGUCUUU
B17: Ic_S4_P4E.1_K4.1_C4.1_H4.1_A4.1_[T5G]_[A6C]_[T7C]_F4.1_[T8C]_[A9G]_T4.1 (ssRNA)
RNA: UUUGACAACUGAUCGUUCUUUCUUGUAGCCCGUUCUUUCUCGAUCAGUUGUCUUU
B18: Ic_S4_P4E.1_K4.1_C4.1_H4.1_A4.1_[T5G]_[A6C]_[T7C]_F4.1_[T8C]_T4.1 (ssRNA)
RNA: UUUGACAACUGAUCGUUCUUUCUUGUAGCCCAUUCUUUCUCGAUCAGUUGUCUUU
B19: Ic_S4_P4E.1_K4.1_C4.1_H4.1_A4.1_[T5G]_[A6T]_[T7C]_F4.1_[T8C]_[A9G]_T4.1 (ssRNA)
RNA: UUUGACAACUGAUCGUUCUUUCUUGUAGUCCGUUCUUUCUCGAUCAGUUGUCUUU
B20: Ic_S4_P3E.1_K3.1_C3.1_H3.1_A3.1_F3.1_[T7G]_[A8T]_T3.1 (ssRNA)
RNA: UUUGACAACUGAUCGUUCUUUCUUGUAUAGUUUCUUUCUCGAUCAGUUGUCUUU
B21: If_S4_P3E.1_K3.1_C3.1_H3.1_A3.1_F3.1_T3.1 (ssRNA)
RNA: UUUGACAACUGAUCGUUCUUUCUUGUAUAUAUUCUUUCUCGAUCAGUUGUCUUU
B22: Ic_S4_P3E.1_K3.1_C3.1_H3.1_A3.1_F3.1_[A8T]_T3.1 (ssRNA)
RNA: UUUGACAACUGAUCGUUCUUUCUUGUAUAUUUUCUUUCUCGAUCAGUUGUCUUU

The target of this series is T1, PUF4 RNA-binding domain. Kind of series: Mg; RNA-MaP; 20 mM Na-HEPES pH 7.4, 30 mM KOAc, 0.75 mM MgCl2, 0.1% Tween-20, 5% glycerol, 0.1 mg/mL BSA, 2 mM DTT; 25 C; 0.0125-409.6 nM protein. Particulars: tags: N-His6-TEV cleaved; C-SNAP kept, Cy3B-labelled; label: tethered on chip by stalled RNA polymerase.
A word on the Kd: it is a measure of binding affinity in units of concentration. A high value points to a looser complex. For B1, the Kd was found to be 51.3 nM.
Regarding B2, the Kd stood at 772 nM.
The molecule B3 came in with a Kd of 649 nM.
In the case of B4, the Kd is 875 nM.
The figure for B5 is 117 nM; for B6 it is 238 nM; for B7 it is 1240 nM.
The figure for B8 is 96 nM.
Under B9 stands 12.1 nM; under B10, 977 nM.
For B11, the Kd was determined as 166 nM.
The figure for B12 is 786 nM.
The figure for B13 is 365 nM; for B14 it is 616 nM.
The figure for B15 is 173 nM; for B16 it is 747 nM.
The molecule B17 gave a Kd of 1440 nM.
Under B18 stands 997 nM.
As for B19, the Kd was 701 nM.
Turning to UCUCUUUGUGUAUUUUCUCUU (ssRNA) [Ib_S1_P4E.1_K4.1_C4.1_H4.1_[A4G]_A4.1_F4.1_[A9T]_T4.1], the Kd stood at 33.2 nM.
The figure for B20 is 23.1 nM; for B21 it is 1.99 nM; for B22 it is 3.03 nM.
